In patent publication US20190252037A1:
Like-named read-outs stand apart in the source and are kept apart here.

Tests used:
[1] = biological target: heterotrimeric polymerase from influenza A/little yellow-shouldered bat/Guatemala/060/2010 (H17N10), wild type (Influenza A/little yellow-shouldered bat/Guatemala/060/2010 (H17N10))
[2] = biological target: 2-repeats (14 amino acids) Ser-5 phosphorylated CTD peptide, fluorescently labelled with FAM at the N-terminal end
[3] = biological target: 4-repeats (28 amino acids) Ser-5 phosphorylated CTD peptide, fluorescently labelled with FAM at the N-terminal end
[4] = biological target: 4-repeats non-phosphorylated CTD peptide, fluorescently labelled with FAM at the N-terminal end
[5] = biological target: 2-repeats (14 amino acids) Ser-5 phosphorylated CTD peptide, fluorescently labelled with FAM at the N-terminal end; remark: listed apart in the source
[6] = biological target: 4-repeats (28 amino acids) Ser-5 phosphorylated CTD peptide, fluorescently labelled with FAM at the N-terminal end; remark: listed apart in the source
[7] = biological target: 4-repeats (28 amino acids) Ser-5 phosphorylated CTD peptide, fluorescently labelled with FAM at the N-terminal end; remark: listed apart in the source

With “Ser-5-phosphorylated 28-mer CTD peptide (four heptad repeats), not labelled” the apparent KD (KD') [1] was 2700 nM.

Substance “heterotrimeric polymerase from human influenza B/Memphis/13/03, wild type (enzyme)” has a Kd [2] of 4200 nM and a Kd [3] of 2900 nM.

“heterotrimeric polymerase from influenza A/little yellow-shouldered bat/Guatemala/060/2010 (H17N10), wild type (enzyme)” was tested, and the Kd [4] was > 10000 nM, the Kd [5] was 6100 nM and the Kd [6] was 900 nM. For the same substance, the Kd [7] was 800 nM.
